Article PMC8555152

Molecular target: microtubule associated protein 1 light chain 3 (LC3), endogenous (human (endogenous in HEK293T)) (UniProt Q9GZQ8)
Assay: co-IP

Substance: HIV-1 NL4-3 Gag (p55), expressed from the provirus (natural protein)
- reduction of the binding in SQSTM1-depleted cells relative to the control siRNA: 50%
